Data published in the nanobody polyreactivity screen of Harvey et al. (2022).

Assay: yeast display, Sf9 membrane polyspecificity reagent, FACS + sequencing; frameworks hold sequencing errors
How it was run: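 Nanobodies came from a synthetic yeast display library in Saccharomyces cerevisiae BJ5465, induced with galactose for 36–48 hours and stained for 1 hour at 4 °C with 10% biotinylated, detergent-solubilized Sf9 membrane reagent. Cells were enriched on streptavidin microbeads and then FACS-sorted, with low and high (top ~1%) gates set on anti-HA fluorescence for expression and streptavidin fluorescence for reagent binding. Each polyreactivity label reflects the gate a clone came from. Genes were amplified by colony PCR, sequenced by MiSeq 2 × 250 and filtered by CDR length.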
With “QVQLVESGGGLVQAGGSLRLSCAASGFIFRYYTMGWYRQAPGKERELVAAISYSGGRTYYADSVKGRFTISRDNAKNTVYLQMNSVKPEDTAVYYCAARQGYVDDDYWGQGTQVTVSS” the “polyreactivity (PSR sort gate)” value was “high polyreactivity”.
In the case of “QVQLVESGGGLVQAGGSLRLSCAASGFTFPRYAMVWYRQAPGKERELVAAINRGGSTYYADSVKGRFTISRDNAKNTVYLQMNSLKPEDTAVYYCARARPVDTVGYVTVSGDYEFDYWGQGTQVTVSS”, the “polyreactivity (PSR sort gate)” value is reported as “low polyreactivity”.
In the case of “QVQLVESGGGLVQAGGSLRLSCAASGSTFYANPMGWYRQAPGKERELLAAITSGGSTNYADSVKGRFTISRDNAKITVYLQMISLKPEDTAVYYCATQVNRERHAEDYWGQGTQVTVSS”, the “polyreactivity (PSR sort gate)” value is reported as “low polyreactivity”.
For “QVQLVESGRGLFQAGGRLRLSCAASGRIFSFYAMGWSRQAPGKERELVASITSGGITNYADSVKGRFTISRDNAKNTVYLQMNSLKPEDTAVYYCNAANPYRRVGSFTYKYDYWGQGTQVTVSS”, the “polyreactivity (PSR sort gate)” value was “low polyreactivity”.
For “QVQLVESGGGLVQAGGSLRLSCADSGTTVIFNAMGWYRQAPGKERELVGAISWRLGRTYYAYSVKGRFTISRDNAKNTVYLQMNSLTPEDTAVYYCARDYSRHKGDYWGQGTQVTVSS”, the “polyreactivity (PSR sort gate)” value was “low polyreactivity”.
For “QVQLVESGGGLVQAGGSLRLSCAASGSIFGFYAMGWSRQAPGKERELVAAITSGARTTYADSVKGRFTISRDNAKNTVYLQMNSLKPEDTAVYYSNADTGLGSLDFDKRDYWGQGTQVTVSS”, the “polyreactivity (PSR sort gate)” value was “low polyreactivity”.
With “QVQHVESGGGLVQAGGSLRLSCAASGIYYNAMGWYRQAPGKERELVAVITYSGGSTYYADSVKGRFTISRDNAKNTVYLQMNSLKPEETAVYYCAADDYYVALPGLYDYWGQGTQVTVSS” the “polyreactivity (PSR sort gate)” value was “low polyreactivity”.
For “QVQLVESGGGLVQAGGSLRLSCAASGSIFVGNAMGWYRQAPGKERELFAAISSSGGSTYYADSVKGRFTISRDKAKNTFYLQMNILKPEDTAVYYCASDTYSTSGFYYWGQGTQVTVSS”, the “polyreactivity (PSR sort gate)” value was “low polyreactivity”.
With “QVQLVESGGGLVQAGRSLRLSCAASGITFQYYAMGGYRQAPGKERELVAAISSGGSTYYADSVKGRFTISRDNAKNTVYLQMNSLKPEDTAVYYCAAKRVFFGLNYDYWGQGTQVTVSS” the “polyreactivity (PSR sort gate)” value was “high polyreactivity”.
For “QVQLVESGGGLVQAGGSLRLSCAASGSILSAYSMGWYRQAPGKARELVAAISKSGSSTYYSDSVKGRFTISRDNAKNTVYLQMNSLKPEDTAVYYCAAESSSYYGYYIYYYWGQGTQVTVSS”, the “polyreactivity (PSR sort gate)” value was “high polyreactivity”.
In the case of “QVQLVESGGGLVQAGGSLRLSCAASGFPFAKNAMGWYRQAPGKERELVAVITSSGGSTYYADSVKGRFTISRDNAKNTVYLQMNCLKPEDTAVYYCNVAYYYRSRSTGYEYWGQGTQVTVSS”, the “polyreactivity (PSR sort gate)” value is reported as “high polyreactivity”.
In the case of “QVQLVESGGGLVQAGGSLRLSCAASGRTFSHYAMGWYRQAPGKERELVAAITWSGGRTYYADSVKGRFTISRDNAKNTVYLQMNSLKPEDTAVYYCAAGKYWPGNYWGQGTQVTVSS”, the “polyreactivity (PSR sort gate)” value is reported as “high polyreactivity”.
In the case of “QVQLVESGGGLVQAGGSLRLSCAASGFTFSNYAMGWYRQAPGKERELVAAITGSGGSTFYADSVKGRFTISRDNAKNTVYLQMNSLKPEDTAVYYCAAYYWSSKYDYWGQGTQVTVSS”, the “polyreactivity (PSR sort gate)” value is reported as “high polyreactivity”.
For “QVQLVESAGGLVQAGGSLRLSCAASGSTFTGYAMGWYRQAPGKERELVAAITYSGVRTNYADSVKGRFTISRDNANNTVYLQMNSLKPEDTAVYYCNAAVVYVKMDYWGQGTQVTVSS”, the “polyreactivity (PSR sort gate)” value was “low polyreactivity”.
With “QVQLVESGGGLVQAGGSLRLSCAASGSTFYFIAMGWFRQAPGKEWELVAVIDGSGGFTYYADSVKGRFTISRDNAKNTVYLQMNSLKPEDTAVYYCAADKTQSHYDDWGQGTQVTVTS” the “polyreactivity (PSR sort gate)” value was “high polyreactivity”.
With “QVQLVESGGGLVQAGGSLRLSSAASGSTFRRNAMGWYRQAPGKQRELVAAITWRGTSTYYADSVKGRFTISRDNAKNTVYLQMNSLKPEDTAVDYCAAPWVVRRTAYDYWGQGTQVTVSS” the “polyreactivity (PSR sort gate)” value was “high polyreactivity”.
With “QVQLVESGGGLVQAGGSLRLTCAATGRIFSRYAMGWYRQAPGKERELVAAISRSGGSTYYADSVKGRFTISRDNAKNTVYFQMNSLKPEDTAVYYCAARNVFSYPPGSYYYWGQGTQVTVSS” the “polyreactivity (PSR sort gate)” value was “high polyreactivity”.
With “QVQLVESGGGLVQAGGSLRLSCAASGSIFQGNAMGWYRQAPGKERELVAAISQSGGRTYYADSVKGRFTITRDNAKNTVYLQMNSLKPEDTAVYYCNTTKVYRLRFDYWGQGTQVTVSS” the “polyreactivity (PSR sort gate)” value was “low polyreactivity”.
With “QVQLVESGGGIVQAGGSHRVICAASGRIFRRYTMGWYRQATGKERDLVATITWDGVSTYYADSVKGRFTISRDNAKKTDYLQMNSLKPEDTAGYYCAARRVYLVGGRYDSWGQGTQVTVSS” the “polyreactivity (PSR sort gate)” value was “high polyreactivity”.
For “QVQLVESGGGLVQAGGSLRLSCAASGCTFKYYTMGWYRQAPGKERELGAAINWRGGTTYYADSVKGRFTISRDNAKNTVYLQMNSLKPEDTAVYYSAKVNGPYRGGGYSRFDYWGQGTQVTVST”, the “polyreactivity (PSR sort gate)” value was “high polyreactivity”.
For “QVQHVESGGGLVQAGGSLRLTCAATGFTFATYTMGWYRQAPGKERELFAAISSGGNTNYADSVKGRFTISRDNAKNTVYLQMNSLKPEDTAVYYCARGATLLQYYYWGVYEYDSWGQGTQVTVSS”, the “polyreactivity (PSR sort gate)” value was “low polyreactivity”.
In the case of “QVQLVESGGGLVQAGGSLRLSCAASGSIYVYYGMGWYRQAPGKERELVAAISSGGSTHYADSVKGRFTISRDNAKNTVYLQMNSLKPEDTAVYYCAADRFFWLRSYPRYYYWGQGTQVTVSS”, the “polyreactivity (PSR sort gate)” value is reported as “low polyreactivity”.
With “QVQLVESGGGLVQAGGSLRLSCAASGRIFHQNTMGWYRQAPGKERELVAAISATGGGTNYADSVKGRFTISRDNAKNTVYLQMNSLKPEDTAVYYCAVRPKTSWYSWYYWGQGTQVTVSS” the “polyreactivity (PSR sort gate)” value was “low polyreactivity”.
In the case of “QDQLVESGGGLVQAGGSLRLICAASARTFSHYPLGWYRQAAGKERELVATITRNGRITYYADSVKGRFTISRDNAKYTVYFQMNSLKPEDTAVYYFNKRWGGPIQFDYWGPGTQVTVSS”, the “polyreactivity (PSR sort gate)” value is reported as “low polyreactivity”.
In the case of “QVQLVESGGGLVQAGGSLRLSCAASGSTLYPNPMGWYRQAPGTERELVAAISGTGGGTYYADSVKGRFTISRDNAKNTVYLQMNSLKPEDTAVYYCAADYVFAWWGDYYWGQGTQVTVSS”, the “polyreactivity (PSR sort gate)” value is reported as “high polyreactivity”.
For “QVKLEESGGGLVQAGGSLRLTCAASGRIFYLYGMGWYRQATGKERELVAAIDRRGTRTYYADSVKGRFTISCDNAQTTFYLQMNSVKPEDTAVYYCAARFAAYRTYTSYDYWGQGTQVTVSS”, the “polyreactivity (PSR sort gate)” value was “high polyreactivity”.
